{"source": "paper doi:10.1101/2020.09.28.310474", "about": "(bioRxiv, 2020)", "proteins": {"B1": {"name": "human CaMKIIα hub domain containing six mutations (6x Hub) (domain or fragment, UniProt Q9UQM7 345-475, looked up)", "chain": "VRKQEIIKVNQQLIEAISNGDFESYTKMCDPGMTAFEPEALGNLVEGLDFHRFYFENLWSRNSKPVHNTMLNPHIHLMGDESACIAYIRITQYLDAGGIPRTAQSEETRVWHRRDGKWQHVHMHRSGAPSV"}}, "biological_target": "the molecule itself", "test": "crystal structure"}
{"protein": "B1", "values": [{"measurement": "stoichiometry N", "value": 14}]}
